According to patent US20230242902A1, “A HIGHLY ERROR-PRONE […] R[…] FOR TARGETED CONTINUOUS EVOLUTION IN VIVO” (The Regents of the University of California, priority 2017, published 2023):
Several values for one entry are separate records, joined by “and”; a condition that tells them apart may be missing. Identical values can stand only once.

Key:
Assay type in all cases: cell-based, S. cerevisiae
[1] = system: p1-encoded leu2 (Q180*); assay: Large-scale p1 fluctuation tests of p1-encoded leu2 (Q180*), per-base substitution rate; details: for Mutation rate (s.p.b.): per-base substitution rate, p1-encoded leu2 (Q180*), measurements taken after 90 generations
Text: All three TP-DNAP1 libraries were screened through small scale p1 fluctuation tests in a metastable S. cerevisiae strain, OR-Y24. OR-Y24 contains w.t. p1 and recombinant p1 that lacks w.t. TP-DNAP1, and instead, encodes a standardized fluorescence reporter of p1 copy number (Table 1), and a disabled version of the LEU2 selection marker (leu2 (Q180*)). As described previously (Ravikumar et al., 2014), leu2 (Q180*) contains a C→T mutation at base 538 in LEU2 at a site permissive to all single point mutants that generate missense mutations. Reversion to functional LEU2 can be detected on medium lacking leucine.
Large-scale fluctuation tests of p1-encoded leu2 (Q180*) were performed to precisely determine per-base substitution rates for individually cloned or isolated TP-DNAP1 variants. Large-scale p1 fluctuation tests are performed similarly to small-scale p1 fluctuation tests, with several modifications. First, large-scale p1 fluctuation tests were typically performed with 36-48 replicates. For highly error-prone TP-DNAP1s obtained from later rounds of screening, fewer replicates (3-16) were used, which is sufficient for similar precision (Foster et al., 2006). Second, p1 copy number was determined by the flow cytometry method, described below. Third, cell titers were measured for each fluctuation test to estimate the average number of cells per culture. Cell resuspensions were diluted and plated on solid SC-UH medium, and colony counts were determined after incubation at 30° C. for 2-3 days. Alternatively, cell resuspensions were diluted and subject to an event-count measurement via flow cytometry. Fourth, inoculums of highly error-prone TP-DNAP 1 s occasionally contained pre-existing mutants, despite the 1:10,000 dilution, so mutant frequencies were estimated by plating pre-cultures on solid SC-UHLW, pH 5.8 medium. Plates were incubated for 2-3 days, in parallel with cultures grown for fluctuation tests. Pre-culture mutant titers were counted to estimate the number of replicates in the fluctuation test expected to contain pre-existing mutants (n). Revertants were counted from all replicates of the fluctuation tests, counts were sorted, and n replicates with the highest counts were omitted from calculations.
To calculate per-base substitution rates, fluctuation data were analyzed by the maximum likelihood method, implemented using newton.LD.plating in rSalvador 1.7 (Zheng, 2017). Phenotypic mutation rates were calculated by normalizing to the average number of cells per culture. Phenotypic mutation rates were divided by the measured p1 copy number and by the number of ways leu2 (Q180*) can revert to LEU2 (2.33 for the ochre codon) to yield per-base substitution rates. 95% confidence intervals were similarly scaled by these factors. All data related to large-scale p1 fluctuation tests are fully described in Table 2.

[2] = system: genomic URA3 gene; assay: Fluctuation tests of the genomic URA3 gene in the presence of TP-DNAP1 variants; details: URA3 locus, strain harbouring p1 and the TP-DNAP1 variant
Protocol: Fluctuation tests of the genomic URA3 gene were performed to determine genomic per-base substitution rates, as previously described (Ravikumar et al., 2014). Fluctuation data were analyzed by the maximum likelihood method, as described for large-scale p1 fluctuation tests. Phenotypic mutation rates were divided by the target size for loss of function of URA3 via base pair substitution (Lang et al., 2008), to yield per-base substitution rates. 95% confidence intervals were similarly scaled by these factors. All data related to genomic URA3 fluctuation tests are fully described in Table 5.

[3] = system: p1; assay: p1 copy number by p1-encoded mKate2 fluorescence; details: sustained by TP-DNAP1 variant
How it was run: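 Read-out is mKate2 fluorescence of saturated OR-Y24 cultures, measured by flow cytometry or by plate reader with OD600 normalization. Flow values were converted by a qPCR-derived linear calibration; plate values were scaled to a w.t. TP-DNAP1 control.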

[4] = system: p1-encoded leu2 (Q180*); assay: qPCR measurement of p1-encoded leu2 (Q180*) copy number; details: qPCR-determined p1 copy number, OR-Y24 strains
Protocol: A calibration curve was established to correlate p1 copy number, determined via quantitative PCR (qPCR), with fluorescence of p1-encoded mKate2 (Table 1). Five TP-DNAP1 variants representing a wide range of copy numbers were transformed into ORY24 and passaged until w.t. p1 was displaced. The five OR-Y24 strains were grown to saturation, diluted 1:10,000 to mimic p1 fluctuation tests, and grown in triplicate 100 μL cultures and duplicate 40 mL cultures. 100 μL saturated cultures were subject to fluorescence measurement of mKate2 (ex/em=561 nm/620 nm, bandwidth=15 nm) on a flow cytometer (Invitrogen Attune NxT). Whole-cell DNA extracts were prepared from 40 mL cultures and used as templates for qPCR measurement of p1-encoded leu2 (Q180*), as described previously (Ravikumar et al., 2014). p1-encoded LEU2 was PCR amplified with qPCR-Leu2F and qPCR Leu2R; and genomic LEU3 was PCR amplified with qPCR-Leu3F and qPCR-Leu3R using SyBR Green (Fisher Scientific) master mix.

B1: TP-DNAP1-4-1: TP-DNAP1 variant (V574F, I777K, L900S), encoded by SEQ ID NO:10 (protein, listed as Kluyveromyces lactis)
chain: MDYKDKALNDLRNVYADFDSLPLDFRQILIKDRATLLQKEDVEKKILERQEDAKKYAEYLKQSEIPERISLPNIKRHKGVSISFEETSEDMVLEPRPFIFDGLNIRCFRRETIFSLKNKILNMVKESSSFKNVSRQSVSFMYFKIFNKGKVIASTKSVNIYEDKIDERLEDLCNNFDDVLKKIIDVTYGYESLFVSETYSYVIFYAKSIYFPQPRCVNNWGNNIPNILTFDSFKLFTANKNNVSCIKQCSRFLWQKDFNTLEEMIEYKNGNICIVTPQLHINDVRDIKSFNDIRLYSESPIKTFSVIDNTITYLFYFKEHLGVIFNITKSRHDRRVTKFSPLSKFSDVKNITVCFDIESYFDPEKESNQVNIPFICCASIIYNKVIGNIVDFEGRDCVAQMIEYVVDICGELNISSVELIAHNGGGYDFHYILSSMYNPAAIKNILIRNNSFISFNFAHDGVKFSVKDSYSFLLCSLANASKAFLNEETFKKTDFPHHDLKTADDLYKVYKEWSSVNTEINHVVEKEKLLITSEHIVNFTKNDKSKTLIEWSKDYCRNDVLVLSKVWLEFKNAFEDIFNCELVDQTMTLAGLSYKLFQANMPFDVELRHPNKEDYFNMREALIGGRCISVNGIYKDVLCLDVKSLYPASMAFYDQPYGSFKRVSSRPKDELGIYYVRVTPNRNNKSNFFPIRSHNKITYNNFEESTYIAWYTNVDIDIGLSEGHNIEYIPFDSYGNIGYSWSKKGKIFEKYIKDVLYKLKIKYEKQNNKVKRNVIKKIMNSLWGKFAQKWVNFEYFIKSEDDIDFESEEAYKIWDTDFMLIKKIKESTYSSKPIQNGVFTLSWARYHMKSIWDAGAKEGAECIYSDTDSIFVHKEHFKKNAKFMLNGLKVPIIGSEVGQSELECEFDKLLCAGKKQYMGFYTYFQDGKPCIKEKKRFKGIPSNYIIPELYAHLLSGADKEAKIQFLKFRREWGSVKGYIENKTVKAT
- p1 mutation rate ([1]; p1 replication by TP-DNAP1 variant): ~7×10^−6 s.p.b.
- Mutation rate (s.p.b.) ([1]; I777K, L900S): 7.58 × 10^−6 s.p.b. and 6.87 × 10^−6 s.p.b. and 7.71 × 10^−6 s.p.b.
- Yeast genomic substitution mutation rate [2]: 1.76 × 10^−10 s.p.b.
- p1 copy number [3]: ~5

B2: I777K: TP-DNAP1 variant, encoded by SEQ ID NO:3 (protein)
chain: MDYKDKALNDLRNVYADFDSLPLDFRQILIKDRATLLQKEDVEKKILERQEDAKKYAEYLKQSEIPERISLPNIKRHKGVSISFEETSEDMVLEPRPFIFDGLNIRCFRRETIFSLKNKILNMVKESSSFKNVSRQSVSFMYFKIFNKGKVIASTKSVNIYEDKIDERLEDLCNNFDDVLKKIIDVTYGYESLFVSETYSYVIFYAKSIYFPQPRCVNNWGNNIPNILTFDSFKLFTANKNNVSCIKQCSRFLWQKDFNTLEEMIEYKNGNICIVTPQLHINDVRDIKSFNDIRLYSESPIKTFSVIDNTITYLFYFKEHLGVIFNITKSRHDRRVTKFSPLSKFSDVKNITVCFDIESYFDPEKESNQVNIPFICCASIIYNKVIGNIVDFEGRDCVAQMIEYVVDICGELNISSVELIAHNGGGYDFHYILSSMYNPAAIKNILIRNNSFISFNFAHDGVKFSVKDSYSFLLCSLANASKAFLNEETFKKTDFPHHDLKTADDLYKVYKEWSSVNTEINHVVEKEKLLITSEHIVNFTKNDKSKTLIEWSKDYCRNDVLVLSKVWLEFKNAVEDIFNCELVDQTMTLAGLSYKLFQANMPFDVELRHPNKEDYFNMREALIGGRCISVNGIYKDVLCLDVKSLYPASMAFYDQPYGSFKRVSSRPKDELGIYYVRVTPNRNNKSNFFPIRSHNKITYNNFEESTYIAWYTNVDIDIGLSEGHNIEYIPFDSYGNIGYSWSKKGKIFEKYIKDVLYKLKIKYEKQNNKVKRNVIKKIMNSLWGKFAQKWVNFEYFIKSEDDIDFESEEAYKIWDTDFMLIKKIKESTYSSKPIQNGVFTLSWARYHMKSIWDAGAKEGAECIYSDTDSIFVHKEHFKKNAKFMLNGLKVPIIGSEVGQLELECEFDKLLCAGKKQYMGFYTYFQDGKPCIKEKKRFKGIPSNYIIPELYAHLLSGADKEAKIQFLKFRREWGSVKGYIENKTVKAT
- Average leu2 (Q180*) copy number per cell [4]: 45.8 and 54.1

B3: Y431H, L640Y, I777K, W814N: TP-DNAP1 variant, encoded by SEQ ID NO:8 (protein, listed as Kluyveromyces lactis)
chain: MDYKDKALNDLRNVYADFDSLPLDFRQILIKDRATLLQKEDVEKKILERQEDAKKYAEYLKQSEIPERISLPNIKRHKGVSISFEETSEDMVLEPRPFIFDGLNIRCFRRETIFSLKNKILNMVKESSSFKNVSRQSVSFMYFKIFNKGKVIASTKSVNIYEDKIDERLEDLCNNFDDVLKKIIDVTYGYESLFVSETYSYVIFYAKSIYFPQPRCVNNWGNNIPNILTFDSFKLFTANKNNVSCIKQCSRFLWQKDFNTLEEMIEYKNGNICIVTPQLHINDVRDIKSFNDIRLYSESPIKTFSVIDNTITYLFYFKEHLGVIFNITKSRHDRRVTKFSPLSKFSDVKNITVCFDIESYFDPEKESNQVNIPFICCASIIYNKVIGNIVDFEGRDCVAQMIEYVVDICGELNISSVELIAHNGGGYDFHHILSSMYNPAAIKNILIRNNSFISFNFAHDGVKFSVKDSYSFLLCSLANASKAFLNEETFKKTDFPHHDLKTADDLYKVYKEWSSVNTEINHVVEKEKLLITSEHIVNFTKNDKSKTLIEWSKDYCRNDVLVLSKVWLEFKNAVEDIFNCELVDQTMTLAGLSYKLFQANMPFDVELRHPNKEDYFNMREALIGGRCISVNGIYKDVLCYDVKSLYPASMAFYDQPYGSFKRVSSRPKDELGIYYVRVTPNRNNKSNFFPIRSHNKITYNNFEESTYIAWYTNVDIDIGLSEGHNIEYIPFDSYGNIGYSWSKKGKIFEKYIKDVLYKLKIKYEKQNNKVKRNVIKKIMNSLWGKFAQKWVNFEYFIKSEDDIDFESEEAYKINDTDFMLIKKIKESTYSSKPIQNGVFTLSWARYHMKSIWDAGAKEGAECIYSDTDSIFVHKEHFKKNAKFMLNGLKVPIIGSEVGQLELECEFDKLLCAGKKQYMGFYTYFQDGKPCIKEKKRFKGIPSNYIIPELYAHLLSGADKEAKIQFLKFRREWGSVKGYIENKTVKAT
- Mutation rate (s.p.b.) [1]: 2.33 × 10^−6 s.p.b. and 4.29 × 10^−6 s.p.b. and 3.24 × 10^−6 s.p.b.
- Yeast genomic substitution mutation rate [2]: 2.68 × 10^−10 s.p.b.
